In the supplement of paper PMC10724198:
± gives the standard deviation of the averaged measurements.

What was measured:
Saccharomyces cerevisiae [1] = test: protein stability index of tFT-peptide fusion (C-terminal peptide) (PSI (0-1 scale)); higher = more stable (slower turnover)
Description: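 MPS profiling in S. cerevisiae of the tFT-X12 degron library: putative degron peptides plus stable controls, 12 aa, fused to the C-terminus of a sfGFP-mCherry timer. Cells are FACS-sorted into 8 mCherry/sfGFP bins and deep-sequenced. PSI runs from 0 (unstable) to 1 (stable). Backgrounds are wild type, das1Δ and doa10Δ at 30 °C, and wild type, das1Δ, cdc34-1 and cdc53-1 at 37 °C; 2-3 technical replicates each.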

Saccharomyces cerevisiae [2] = test: as above; settings: genetic background: wild type; temperature: 30 C
[3] = genetic background: cdc34-1, temperature: 37 C
[4] = genetic background: cdc53-1, temperature: 37 C
[5] = genetic background: das1 deletion, temperature: 30 C
[6] = genetic background: das1 deletion, temperature: 37 C
[7] = genetic background: doa10 deletion, temperature: 30 C
[8] = genetic background: wild type, temperature: 30 C
[9] = genetic background: wild type, temperature: 37 C
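Further: PSI is a weighted mean of sequencing reads over stability bins, variants kept only with over 10 reads, mCherry proximal and sfGFP distal, peptide attached via GGGS linker.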

Sequence	protein stability index (Saccharomyces cerevisiae [1]; [3])	protein stability index (Saccharomyces cerevisiae [1]; [4])	protein stability index (Saccharomyces cerevisiae [1]; [5])	protein stability index (Saccharomyces cerevisiae [1]; [6])	protein stability index (Saccharomyces cerevisiae [1]; [7])	protein stability index (Saccharomyces cerevisiae [1]; [8])	protein stability index (Saccharomyces cerevisiae [1]; [9])	protein stability index (Saccharomyces cerevisiae [2])
SLCSRLVVVAWF	0.531 ± 0.017	0.599 ± 0.026	0.432 ± 0.026	0.608 ± 0.014	0.374 ± 0.035	0.386 ± 0.0062	0.553 ± 0.026	0.494 ± 0.024
SLRKRILCRFEY	0.6572 ± 0.0064	0.708 ± 0.011	0.655 ± 0.012	0.7348 ± 0.0056	0.368 ± 0.041	0.4388 ± 0.0014	0.599 ± 0.023	0.511 ± 0.023
SLSIFCLMLMLF	0.564 ± 0.04	0.601 ± 0.029	0.467 ± 0.016	0.565 ± 0.025	0.425 ± 0.015	0.406 ± 0.021	0.512 ± 0.012	0.4537 ± 0.0037
SPPSFPPLLLLS	0.668 ± 0.043	0.7368 ± 0.00078	0.608 ± 0.015	0.7386 ± 0.0036	0.326 ± 0.028	0.362 ± 0.022	0.541 ± 0.028	0.48 ± 0.022
SPSFLVIFTMLL	0.528 ± 0.023	0.577 ± 0.01	0.433 ± 0.034	0.6018 ± 0.0041	0.438 ± 0.044	0.444 ± 0.013	0.596 ± 0.017	0.468 ± 0.015
SPSSLPRPLFLS	0.592 ± 0.015	0.726 ± 0.017	0.616 ± 0.015	0.7356 ± 0.0018	0.138 ± 0.033	0.163 ± 0.02	0.289 ± 0.026	0.261 ± 0.053
SPVPITVAVGCR	0.473 ± 0.0085	0.491 ± 0.012	0.352 ± 0.034	0.5444 ± 0.0028	0.329 ± 0.008	0.357 ± 0.021	0.499 ± 0.018	0.407 ± 0.029
SQSNQSIIRKNV	0.7 ± 0.043	0.713 ± 0.0077	0.63 ± 0.013	0.737 ± 0.016	0.296 ± 0.034	0.36 ± 0.032	0.551 ± 0.069	0.453 ± 0.02
SSCLPAPPPLPL	0.6491 ± 0.003	0.747 ± 0.025	0.682 ± 0.042	0.698 ± 0.0084	0.677 ± 0.0075	0.672 ± 0.021	0.701 ± 0.017	0.4965 ± 0.0048
SSFFFLFCFFPS	0.575 ± 0.13	0.619 ± 0.027	0.48 ± 0.062	0.646 ± 0.055	0.444 ± 0.031	0.449 ± 0.019	0.604 ± 0.017	0.471 ± 0.047
SSFPGPPLPPDP	0.704 ± 0.024	0.74 ± 0.013	0.652 ± 0.024	0.731 ± 0.022	0.682 ± 0.038	0.7 ± 0.019	0.7108 ± 0.0069	0.59 ± 0.17
SSVFRLKGLMFL	0.622 ± 0.062	0.721 ± 0.042	0.65 ± 0.047	0.7146 ± 0.0016	0.262 ± 0.0081	0.277 ± 0.016	0.448 ± 0.012	0.442 ± 0.038
SSVLLMFFCFVC	0.256 ± 0.02	0.388 ± 0.015	0.318 ± 0.014	0.476 ± 0.025	0.159 ± 0.012	0.164 ± 0.011	0.252 ± 0.019	0.262 ± 0.023
SSVLWVMFVFFY	0.313 ± 0.026	0.387 ± 0.0063	0.309 ± 0.058	0.442 ± 0.0026	0.264 ± 0.0091	0.253 ± 0.067	0.387 ± 0.027	0.436 ± 0.058
SVFGLLSVCFFY	0.488 ± 0.032	0.5669 ± 0.002	0.385 ± 0.029	0.604 ± 0.0077	0.358 ± 0.016	0.398 ± 0.018	0.549 ± 0.022	0.472 ± 0.019
SVKRVVPCLVSC	0.442 ± 0.0081	0.468 ± 0.0077	0.332 ± 0.035	0.525 ± 0.0063	0.289 ± 0.0049	0.337 ± 0.022	0.486 ± 0.0031	0.45 ± 0.063
SVLSFGVFCLVG	0.553 ± 0.043	0.65407 ± 0.00051	0.524 ± 0.023	0.61 ± 0.0077	0.4185 ± 0.0031	0.427 ± 0.033	0.527 ± 0.013	0.538 ± 0.13
SVPRTRAPRLIS	0.646 ± 0.027	0.73 ± 0.034	0.658 ± 0.025	0.71911 ± 0.00014	0.184 ± 0.0079	0.213 ± 0.024	0.4611 ± 0.00082	0.384 ± 0.041
SVVFFYPPIFHA	0.636 ± 0.057	0.7392 ± 0.006	0.678 ± 0.053	0.713 ± 0.016	0.28 ± 0.0055	0.326 ± 0.027	0.549 ± 0.011	0.437 ± 0.044
SVVYSVWIYLLH	0.352 ± 0.018	0.4407 ± 0.0016	0.292 ± 0.022	0.484 ± 0.026	0.175 ± 0.0072	0.213 ± 0.03	0.392 ± 0.011	0.309 ± 0.0075
TEVGAWLLLCRC	0.271 ± 0.051	0.307 ± 0.01	0.268 ± 0.034	0.403 ± 0.02	0.231 ± 0.0043	0.277 ± 0.017	0.385 ± 0.0097	0.363 ± 0.009
TFLVWSLMAGDR	0.449 ± 0.033	0.5276 ± 0.00077	0.447 ± 0.023	0.4667 ± 0.0043	0.484 ± 0.011	0.474 ± 0.043	0.459 ± 0.032	0.464 ± 0.03
TFRVLAFFCRVV	0.453 ± 0.0089	0.538 ± 0.015	0.47 ± 0.03	0.616 ± 0.059	0.308 ± 0.0053	0.286 ± 0.025	0.3902 ± 0.0029	0.367 ± 0.012
TKGIIKKINIIM	0.624 ± 0.14	0.73 ± 0.039	0.617 ± 0.016	0.724 ± 0.0084	0.154 ± 0.0088	0.206 ± 0.035	0.467 ± 0.09	0.36 ± 0.014
TLCCLVCSQGVV	0.478 ± 0.051	0.598 ± 0.013	0.471 ± 0.027	0.5217 ± 0.0031	0.482 ± 0.031	0.479 ± 0.039	0.526 ± 0.01	0.484 ± 0.016
TLFSPPVLATPS	0.624 ± 0.042	0.6754 ± 0.0047	0.528 ± 0.026	0.676 ± 0.0092	0.513 ± 0.021	0.54 ± 0.014	0.644 ± 0.0088	0.0225 ± 0.011
TLLSSIFLCLVL	0.575 ± 0.018	0.6448 ± 0.0023	0.477 ± 0.031	0.6128 ± 0.0011	0.466 ± 0.012	0.462 ± 0.024	0.574 ± 0.022	0.541 ± 0.1
TRHIGQYIHKIT	0.641 ± 0.048	0.734 ± 0.027	0.635 ± 0.027	0.694 ± 0.037	0.151 ± 0.0037	0.233 ± 0.049	0.436 ± 0.0061	0.339 ± 0.081
TSFLHLFVAAII	0.588 ± 0.027	0.632 ± 0.045	0.499 ± 0.02	0.5932 ± 0.0013	0.415 ± 0.009	0.434 ± 0.012	0.5505 ± 0.004	0.513 ± 0.024
TSLPPSPPPSPT	0.682 ± 0.016	0.713 ± 0.17	0.392 ± 0.044	0.563 ± 0.0085	0.373 ± 0.014	0.392 ± 0.012	0.562 ± 0.033	0.476 ± 0.025
